Reference: patent publication US20030236190A1 (published 2003)
Positions of bridges follow the written chain, without caps; N, C: chain ends. No end group written: not given here.

B1: H2CA-4-F5-IGFR (peptide)
peptide: VGYQGQGDENFYDWFIRQVSGRLGVQ
B2: B6Hα-2-D1-IR (peptide)
peptide: GCEVIVEEGDSADPFYHKLSELCQGS
modifications: disulfide 2-23 (inferred)
B3: NNRPγ-4-A7-IR (peptide)
peptide: RFDPFYSYFVNLLGASA
B4: NNRPγ-4-A1-IR (peptide)
peptide: IIGGFYSYFNSVLRLGT
B5: 20E2B-4-H8-IGFR (peptide)
peptide: PAGPCGFYCGLGLLLHGDQSP
modifications: disulfide 5-9 (inferred)
B6: 20E2A-3-D10-IGFR (peptide)
peptide: MMVVDGFYDALHQLVVAQSLG
B7: A6L-0-E6-IR (peptide)
peptide: YRGMLVLGRSSDGAGKVAFERPARIGQTVFAVNFYDWFV
B8: B6Hα-3-F7-IR (peptide)
peptide: SRVAATKEKRPSDDPFYHKLSELLQGS
B9: H2CA-4-F11-IGFR (peptide)
peptide: SAAQLFFQESFYDWFLRQVAESSQPN
B10: B6Hα-3-F10-IR (peptide)
peptide: GCVVEWQKWHGASDPFYHKLSELGGCS
modifications: disulfide 2-26 (inferred)
B11: B6Eα-2-C10-IR (peptide)
peptide: SGAKVIVVTGDSGDPFYHKLSELLQGS
B12: 20E2B-4-E9-IGFR (peptide)
peptide: RCQGTGFYTCIQELIGFGDPD
modifications: disulfide 2-10 (inferred)
B13: H2CA-4-H8-IGFR (peptide)
peptide: SACQFDCHENFYDWFARQVSGGAAYG
modifications: not fully specified (bridges); cysteine pairing not given here
B14: B6Hα-2-D6-IR (peptide)
peptide: GRTMAVMAAGGPDDPFYHKLSELVQGG
B15: 20E2A-3-A12-IGFR (peptide)
peptide: LSVALSFYDALGQLVAGEGRW
B16: 20E22-1-A8-IGFR (peptide)
peptide: TLRSPTFYDWLEMVLTHGQGG
B17: B6L-4-D7-IR (peptide)
peptide: AETSVQVGWIRLQSVWPGEHWNTVDPFYHKLSELLRGSGA
B18: H6Hα-4-G8-IR (peptide)
peptide: GGTKAVAKVGTRDDPFYHKLSELLQGS
B19: 26Hα-3-E8-IR (peptide)
peptide: RGKTAAVIVGRPADPFYHKLSELLQGG
B20: H2CA-4-G9-IGFR (peptide)
peptide: GIISQSCPESFYDWFAGQVSDPWWCW
B21: 20E2A-3-C7-IGFR (peptide)
peptide: VGTVAGFYDAIAQLVARASRV
B22: H2CA-4-H6-IGFR (peptide)
peptide: VGRASGFPENFYDWFGRQLSLQSGEQ
B23: B6Hα-3-E7-IR (peptide)
peptide: GCAVVEEAERSRGDPFYHKLSELIQGC
modifications: disulfide 2-27 (inferred)
B24: B6Hα-1-A3-IR (peptide)
peptide: SRAKVEAEMPDSGDPFYHKLSELLASG
B25: RB436 (other, not shown: large carriers)
chain: NNNNLGIEGRISEFIEGRAQPAMAFHENFYDWFVRQVSGGSGGSGGSFHENFYDWFVRQVSAAAGAPVPYPDPLEPRAA
notes: MBP fusion, uncleaved
B26: RB435 (other, not shown: large carriers)
chain: NNNNLGIEGRISEFIEGRAQPAMAFHENFYDWFVRQVSGGSFHENFYDWFVRQVSGGSFHENFYDWFVRQVSAAAGAPVPYPDPLEPRAA
notes: MBP fusion, uncleaved
B27: RB437 (other, not shown: large carriers)
chain: NNNNLGIEGRISEFIEGRAQPAMAFHENFYDWFVRQVSAAAGAPVPYPDPLEPRAA
notes: MBP fusion, uncleaved
B28: RB463 (other, not shown: large carriers)
chain: NNNNLGIEGRISEFIEGRAQPAMAFHENFYDWFVRQVSGGSFHENFYDWFVRQVSAAAGAPVPYPDPLEPRAA
notes: MBP fusion, uncleaved

Target: T1, Insulin receptor prepared according to Bass et al., 1996: soluble human insulin receptor-immunoglobulin heavy … (human, UniProt P06213 28-956)
T1 construct: extracellular domain; Eu3+-labelled in TR-FRET; also called IR; sIR-Fc; not shown: immunoglobulin heavy chain constant domains that replace the transmembrane and i
Experiment: phage ELISA, vs IGF-1R

Binder | IR/IGF-1R Comparison [ratio]
B1 | 0.1
B2 | 0.2
B3 | 0.2
B4 | 0.2
B5 | 0.2
B6 | 0.3
B7 | 0.1
B8 | 0.3
B9 | 0.1
B10 | 0.2
B11 | 0.2
B12 | 0.2
B13 | 0.1
B14 | 0.2
B15 | 0.3
B16 | 0.2
B17 | 0.3
B18 | 0.3
B19 | 0.2
B20 | 0.1
B21 | 0.2
B22 | 0.1
B23 | 0.2
B24 | 0.3

Target: human insulin receptor (HIR) (human, UniProt P06213 28-1382, limits assumed)
Experiment: HIR Kd, Table 14; competition with 125I-insulin on solubilised HIR (method of Example 3, not restated for this table)

Binder | Kd [µM]
B25 | 0.41
B26 | 2
B27 | 8.3
B28 | 0.96

Target: T2, Soluble IGF-1R (R&D Systems, Cat. # 391-GR/CF); recombinant human IGF-1R (human, UniProt P08069 31-935)
T2 construct: extracellular domain; Eu3+-labelled in the TR-FRET assays; also called sIGF-1R; rhIGF-1R
Experiment: phage ELISA, vs IR

Binder | IGF-1R/IR Comparison [ratio]
B1 | 12.3
B2 | 4.2
B3 | 4.9
B4 | 6
B5 | 5.9
B6 | 3.9
B7 | 17
B8 | 3.1
B9 | 6.7
B10 | 4.6
B11 | 5.3
B12 | 5.6
B13 | 9.4
B14 | 4.4
B15 | 3.9
B16 | 5
B17 | 3.4
B18 | 3.6
B19 | 4.8
B20 | 16
B21 | 5.1
B22 | 14.6
B23 | 4.3
B24 | 3.3

Target: T1, Insulin receptor prepared according to …
Experiment: phage ELISA vs milk

Binder | Ratio over Background [fold]
B1 | 0.8
B2 | 1.3
B3 | 1.3
B4 | 1.8
B5 | 0.9
B6 | 1.8
B7 | 1.8
B8 | 1
B9 | 1
B10 | 1.9
B11 | 1.1
B12 | 0.9
B13 | 1
B14 | 1
B15 | 1.1
B16 | 0.9
B17 | 1.4
B18 | 1.7
B19 | 1.1
B20 | 0.6
B21 | 1.1
B22 | 0.7
B23 | 1.3
B24 | 0.8

Target: T2, Soluble IGF-1R (R&D Systems, Cat. # …)
Experiment: phage ELISA vs milk

Binder | Ratio over Background [fold]
B1 | 9.7
B2 | 5.4
B3 | 6.3
B4 | 10.9
B5 | 5.3
B6 | 6.9
B7 | 31
B8 | 3.1
B9 | 6.8
B10 | 8.8
B11 | 5.8
B12 | 5.2
B13 | 9.2
B14 | 4.4
B15 | 4.3
B16 | 4.4
B17 | 4.8
B18 | 6.1
B19 | 5.3
B20 | 9.5
B21 | 5.4
B22 | 10.5
B23 | 5.6
B24 | 2.6
